Values joined by “and” are separate entries in the source; they are usually repeats but may differ in a detail not shown here. Equal entries are not always repeated.

In the test the target is T1, CRF2-4/IL-22RA heterodimeric receptor on BaF3/CRF2-4/IL-22RA cells (human, UniProt Q08334 20-325, limits assumed).
T1 sequence 1: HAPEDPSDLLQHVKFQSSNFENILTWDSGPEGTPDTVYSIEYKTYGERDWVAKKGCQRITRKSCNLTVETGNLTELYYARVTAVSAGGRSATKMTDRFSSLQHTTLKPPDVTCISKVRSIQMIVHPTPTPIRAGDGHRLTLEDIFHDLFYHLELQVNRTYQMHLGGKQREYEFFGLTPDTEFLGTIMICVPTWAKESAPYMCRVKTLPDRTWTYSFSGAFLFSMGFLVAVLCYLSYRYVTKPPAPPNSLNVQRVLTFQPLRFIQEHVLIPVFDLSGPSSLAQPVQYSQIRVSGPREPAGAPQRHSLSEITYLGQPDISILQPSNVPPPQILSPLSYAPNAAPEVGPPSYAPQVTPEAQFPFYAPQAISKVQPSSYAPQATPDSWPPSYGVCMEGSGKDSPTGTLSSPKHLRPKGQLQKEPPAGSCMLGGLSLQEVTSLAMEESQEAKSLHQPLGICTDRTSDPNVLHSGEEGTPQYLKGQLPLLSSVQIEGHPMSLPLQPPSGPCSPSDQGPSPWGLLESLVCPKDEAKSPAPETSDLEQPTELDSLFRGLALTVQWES
T1 sequence 2: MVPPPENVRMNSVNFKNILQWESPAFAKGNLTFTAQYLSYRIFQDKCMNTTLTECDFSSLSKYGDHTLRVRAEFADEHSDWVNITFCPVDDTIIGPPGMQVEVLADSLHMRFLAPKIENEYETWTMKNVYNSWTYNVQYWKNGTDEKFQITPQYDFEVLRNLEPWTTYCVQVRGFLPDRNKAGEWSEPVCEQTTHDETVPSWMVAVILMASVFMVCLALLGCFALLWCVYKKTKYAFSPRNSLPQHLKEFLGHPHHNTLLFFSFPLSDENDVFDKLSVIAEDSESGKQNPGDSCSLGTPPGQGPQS
Put plainly: cell-based or functional assay.

B1: IL-22-CEE (human IL-22 polypeptide with C-terminal GluGlu (EE) tag, purified from BHK 570 cells) (ligand)
chain: LLLALLVQGGAAAPISSHCRLDKSNFQQPYITNRTFMLAKEASLADNNTDVRLIGEKLFHGVSMSERCYLMKQVLNFTLEEVLFPQSDRFQPYMQEVVPFLARLSNRLSTCHIEGDDLHIQRNVQKLKDTVKKLGESGEIKAIGELEYMPME
As to B1, the “proliferation of BaF3/CRF2-4/IL-22RA cells (Alamar Blue)” value is ~15 fold over background and 2 fold induction.

(Values after US20040209330A1 (ZymoGenetics, published 2004).)
